In patent US20050079543A1:

Legend:
[1] = biological target: Stat84, activated (from IFN-γ-treated C84 or Cmx cells) (human) (UniProt P42224); experiment: cell-based or functional assay
[2] = biological target: Stat91L, activated (from IFN-γ-treated C91L or Cmx cells) (human) (UniProt P42224); experiment: cell-based or functional assay
[3] = biological target: tyrosine phosphorylated Stat91 (human) (UniProt P42224); experiment: glycerol gradient sedimentation
[4] = biological target: tyrosine phosphorylated Stat91 (human) (UniProt P42224); experiment: native gel electrophoresis, Ferguson plots

Sequence of Stat84, activated (from IFN-γ-treated C84 or Cmx cells) (human) (P42224 2-712 limits assumed): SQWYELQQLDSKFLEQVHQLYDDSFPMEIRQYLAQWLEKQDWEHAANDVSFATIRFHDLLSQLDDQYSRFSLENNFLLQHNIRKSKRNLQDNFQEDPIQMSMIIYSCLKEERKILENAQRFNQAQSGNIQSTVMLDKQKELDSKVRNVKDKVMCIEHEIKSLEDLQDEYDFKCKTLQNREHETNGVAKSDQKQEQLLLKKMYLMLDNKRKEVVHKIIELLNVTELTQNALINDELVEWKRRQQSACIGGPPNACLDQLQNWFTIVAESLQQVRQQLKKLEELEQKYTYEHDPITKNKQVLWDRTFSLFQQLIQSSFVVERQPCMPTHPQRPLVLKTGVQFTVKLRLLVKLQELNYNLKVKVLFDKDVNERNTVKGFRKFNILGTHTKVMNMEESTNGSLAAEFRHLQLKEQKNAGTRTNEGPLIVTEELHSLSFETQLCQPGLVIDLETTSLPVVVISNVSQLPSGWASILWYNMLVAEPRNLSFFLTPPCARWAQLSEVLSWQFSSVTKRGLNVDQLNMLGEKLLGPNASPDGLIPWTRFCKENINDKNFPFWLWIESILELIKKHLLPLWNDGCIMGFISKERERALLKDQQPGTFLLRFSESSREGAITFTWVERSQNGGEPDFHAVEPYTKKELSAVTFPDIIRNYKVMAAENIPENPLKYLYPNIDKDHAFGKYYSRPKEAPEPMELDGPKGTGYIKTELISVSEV
Sequence of Stat91L, activated (from IFN-γ-treated C91L or Cmx cells) (human) (P42224 2-750, stated change not applied): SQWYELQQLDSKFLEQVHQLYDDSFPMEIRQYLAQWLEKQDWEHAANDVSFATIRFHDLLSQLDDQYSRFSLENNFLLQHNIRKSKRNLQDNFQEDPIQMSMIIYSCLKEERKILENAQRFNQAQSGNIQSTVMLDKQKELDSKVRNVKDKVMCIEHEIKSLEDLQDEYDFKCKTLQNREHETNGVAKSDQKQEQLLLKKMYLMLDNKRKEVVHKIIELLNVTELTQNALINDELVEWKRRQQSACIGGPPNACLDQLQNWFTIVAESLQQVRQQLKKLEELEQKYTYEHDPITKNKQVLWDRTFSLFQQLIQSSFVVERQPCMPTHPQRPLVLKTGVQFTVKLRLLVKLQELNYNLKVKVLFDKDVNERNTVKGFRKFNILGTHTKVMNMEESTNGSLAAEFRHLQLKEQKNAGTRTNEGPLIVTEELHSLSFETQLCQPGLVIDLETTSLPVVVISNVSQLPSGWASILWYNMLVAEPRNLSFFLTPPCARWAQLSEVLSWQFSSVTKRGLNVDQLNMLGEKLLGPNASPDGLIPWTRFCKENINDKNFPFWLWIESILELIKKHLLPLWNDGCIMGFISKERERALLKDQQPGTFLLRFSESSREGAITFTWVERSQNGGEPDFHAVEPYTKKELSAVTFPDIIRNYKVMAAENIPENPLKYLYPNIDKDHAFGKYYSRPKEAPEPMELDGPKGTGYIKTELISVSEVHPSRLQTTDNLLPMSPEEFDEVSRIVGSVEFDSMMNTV

Row | Substance | fusion protein concentration that promoted heterodimer formation (gel mobility shift) [1] [µM] | fusion protein concentration that promoted heterodimer formation (gel mobility shift) [2] [µM] | native molecular weight [3] [kD] | native molecular weight [4] [kD]
1 | GST-91SH2 (glutathione-S-transferase fused to the Stat91 SH2 domain, amino acids 573 to 672) (from UniProt P42224 573-672) | 0.5 to 5 | 0.5 to 5 | – | –
2 | tyrosine phosphorylated Stat91 (from UniProt P42224 2-750) | – | – | 180 | 180
